This note sets out measurements from a protein production outcome set (Wang et al. 2014).

The nature of the data set: label from the status in PepcDB records.
Turning to “MARKKITLVGAGNIGGTLAHLALIKQLGDVVLFDIAQGMPNGKALDLLQTCPIEGVDFKVRGTNDYKDLENSDVVIVTAGVPRKPGMSRDDLLGINIKVMQTVGEGIKHNCPNAFVICITNPLDIMVNMLQKFSGVPDNKIVGMAGVLDSARFRTFLADELNVSVQQVQAYVMGGHGDTMVPLTKMSNVAGVSLEQLVKEGKLKQERLDAIVSRTRSGGGEIVALLKTGSAYYAPAAAGIQMAESFLKDKKMILPCAAKVKAGMYGLDEDLFVGVPTEISANGVRPIEVEISDKEREQLQVSINAIKDLNKAAAEILAK”, the protein production entry was “not failed”.

“MARKNQKAPWEPEEEIIWVSKSEMKRDMEELQKLGEELVGLKPAVLEKFPLSEDLREAIADAQRFKNEARRRQLQRIGKLMRYEDPEPIQAALDKVRNKHSQATAALHKLEMLRDRVVEEGDKAIDDVMELYPEADRQRLRQLARQAAKEKKAGKPAKSYREIFQILKALNEEE”: the protein production result was “not failed”. Regarding “MARKTAQSKRGVFNMDRLTSMAVFVKAVDLGSFAAAAEALGLSGPMVGKHVRSLEDRLGVQLINRTTRRQSLTEFGYVYYERCRVVLAEAQAADALASDQLSEPRGKLRVTMPVHFGRHCVTPVLLELARKYPALELDLSFNDRIIDLAEDGFDLSIRTGVLEDRAGLIARRVARQPMIVCASPSYLESHGCPEAPEDLAQHAAVVYRRSGPVSPWLFPRPGQSSSEVTPLHRFRLDDLDAIADAAARGLGLAWLPYWLVRGRIEAGTLVRLLPEQPPFLYDCHAVWLQTPHLPLKVRVAVDALAAQLPSFMT”, the protein production result is reported as “failed”.

For “MARLHPIYSGQSDRPAILFVHGLDGHWLETWRHDACSKDDCWPHWVGEETGCDIWSLEYDAALSGWLDQAMPLPDQGSQVMDLLASAPALKGKPLVFVTHSLGGILVKTALVYGAEEDRRFQHIVDHVLGVVFIATPHSGAQLATLARVIKYLLRINPPVGNLEHHDPHLRTLNRRYQTLVKERGIEGYVYAEKRGVKIGPRGFGGWLRRIEPTVMVVDPGSTDPSLPEIQPISLAEDHISICKPPDRQQQIHLSLCHVLKEKIIPLAGDRGMGTTGVGLKLLESGTAQENPAAHMPPGRLVGPDDNRLSPREGKVYGRKTQENDVLAFLKGSEPVKVVGGVAGVGKTEVCKAALKTWLHTSPRPVAYYVRVPDRARSADLVLQVGKAVGIENCESLAQLLGVIPVGLYYLDNLESVADDQEGRNALRDLAQKPGVRILASSRTRLDTIFGAPIEIKCLSAPDALALFRDLWPPTQTLPKDDELQAFVIGKLGGHALSLVLVARLGMCLSFDALRRRWDEEGAALACDGVEDDTRTSNLTFNLRLTAEVLAPTPGALSVWVLMALFEEGIPEAVLEEVERRGQWPTLARHRLAVHHLISKRGDRWFLPPPVARYARYAAVTEQDGFCWRKSRQPILDLFLVFAEKASSFDSSPETLKAKKWILEFFNTISIVIECELESNVQNKFWLNRMSYFLRDIYQQRIAVSPALLRKLADAGIQPANTLRSLGDLASRLGQVDKARSLYEKALGLSQQEQSGLGQANALKALGDLASRLGQVDKARSLYETALGLFQQEQHGLGQANTLHGLGDLASQLGQVDKARSLYEKALGLFQQEPNGLGQANTLKSLGALEYRLGQVDKARSLYEKAVDLYRIEQEPLGLAYSLTNLALCFEVLKNLSKRNQVLKAAFVASRDANNEIVQIYLKEAIPEMPGADVLYDSWLKGQSR”, the protein production entry is on record as “failed”. Next, “MARLNVNPTRMELSRLKKQLTTATRGHKLLKDKQDELMRRFIALVKENNELRIQVEQEVTDALSNFVLANATLNEAFIEELVAIPAEKVELEIIEQNILSVPVPKMIFDYDESVQEAPLDYGYVNSNSELDQAFAKISSILPKLLALANVEKTCQLLSKEIEKTRRRVNALEYMTIPQLEETIYYIQMKLEENERGEITRLIKIKSMNKENLEHHHHHH”: “failed”; “MARMGGKKHLKALVAPKFWPILRKEYKWAVKPSPGPHPIERCFPLLIIVRDILGYAKTAREARKLISEGHFKVDGRVRKNYKYPVGLMDVIEIVDTGETYRVIPVPVKVLGLIEIDKEEAKYKLSRIENKTTVKGGHIQLNLHDGRNVLIKVSDPKNPVEDIYKTLGTLQISIPEQQILNYIPLDEGTLVIISGGRNVGRVGKVVSIHKGIRRHRSIVTIEDKHGNKFQTSLTYVFPIGKEEPLIKLPEGAW”: “failed”; “MARNSDNDMCKEERKRESFFKVLQRVDISSENMRALPYDFVRSFSNNELSRKMKIKARWGSSWEVEICKNPRFYFMEKSGWEKFVSDNALGASEFLTFTHKGNMRFTVNIFMQDGKEMLQPPQSMSFMASSRPPKREQGIPSLATTIAAESNGGGNYKRKLNFEKKKAEESHNSKRTDKVFSVQRESAGASSSSVAEFSMFIKKSYLIYMWFPKSVQSIHMPKQRTIFKIHHPNMKKSWNVVYVVSGTKSSFSAGWKGLAQEYPLAVGDTCKFSFIKQHELILFVSKP”: “failed”.

Take “MARPLVPSSQKALLLELKGLQEEPVEGFRVTLVDEGDLYNWEVAIFGPPNTYYEGGYFKARLKFPIDYPYSPPAFRFLTKMWHPNIYETGDVCISILHPPVDDPQSGELPSERWNPTQNVRTILLSVISLLNEPNTFSPANVDASVMYRKWKESKGKDREYTDIIRKQVLGTKVDAERDGVKVPTTLAEYCVKTKAPAPDEGSDLFYDDYYEDGEVEEADSCFGDEEDDSGTEES”: the protein production entry is on record as “failed”. Take “MARPQPCGPPHARCGSPSLPERPLQVKVVGLFSCPNFQIAKSAAENLKNNHPSKFEDPILVPLQEFAWHQYLQEKKRELKNETWEYSSSVISFVNGQFLGDALDLQKWAHEVWDIVDIKPSALYDALTEDFSAKFLRDTKHDFVFLDICIDSSPIGRLIFELYCDVCPKTCKNFQVLCTGKAGFSQRGIRLHYKNSIFHRIVQNGWIQGGDIVYGKGDNGESIYGPTFEDENFSVPHNKRGVLGMANKGRHSNGSQFYITLQATPYLDRKFVAFGQLIEGTEVLKQLELVPTQNERPIHMCRITDSGDPYA”: the protein production result is on record as “failed”. With “MARPRDRQKLDAVKVVETLDNLHARVSERFPASGLAMVCARLADTGRQTAARARRIGRPYLLLRALVVLIIVGGVALEFALAWRLDWSAALRAREGFDLAQGLEAAINLALLSGAAAWFLSSLERRWKQQRVQVALHELRSFCHVIDMHQLTKDPSVILGPRTRHSPPREMSNFQLSRYLDYCAEMLALTAKLAALYAGETDDPVIIAAVNDIETLASDLGRKIWQKIMILGQLNEAAAAQA”, the protein production entry was “failed”. For “MARSQQFPSSTAVSVSPPAASSIAKPPQPVLDGLWAFAPNRDTLGGTAYFLKLPQGNWLIDAPAWHGETQAFVEEQGGLQGVFLTHRGAFGKAIAIQQHFDCDLVVQEQEAYLLPGANVTTFEQEQAIAPALTAIWTCGHSPGSACLYWEGHGGVLFTGRHLLPTRAGGVAPLRTAKTFHWPRQIRNTQMLCDRFSSETLAWICPGASSGFLRGRKAIASAYMQLQQLDWSALSEAQPLL”, the protein production entry is reported as “failed”. As for “MARSRVAGSKEAGPKVAGSRSRAAGQGRVGARLADGLRAYRMIAGMWIRSTMAYRASFVMTTFGNFGATALDFVAILLMFSQVDALGGYTLPEIAFLYGVAGIAFGLADLAIGSMDRLGRRVRDGTLDTLLVRPAPVLAQVAADRFALRRLGRITQGLLVFGYAVAALDIAWTPLKVLMVPFMMLSGGAIFAAVFVAGGAFQFVAQDASEVQNSFTYGGQTLLQYPPTVFAADLVRGVTFVVPIAFVNWLPALYVLGRPYPLDLPTWVAFTPPLVAAACCALAGLAWRAGLRSYRSTGS”, the protein production entry is reported as “failed”. In the case of “MARSVVVSAEAVYSHEGEYVGDHVLVDEGLVKSISRGEPHVSVGKRVAVKGFLLPPLVDAHLHMRSLGASFRIVNLKGASSPEEVAKRLAAANSPIAVGRGWNEEEFRPGSRLDRRILDSYLGEKPALAVRICGHVAVANSAFIRESGVDKLFPNLVDRERGLLLEDAVSYAVSVAMKTYNNEELLRDAASALASVGVFGVSSMACSEEEVRALSLIGDALEVRVACYLRRGVEPPPKRAGARWSIVGVKLFADGSLGGRTAYLRRPYISGENEGWRGLKLLSSRDIAEEAVSNSHRGLATAVHAIGDAALDEVLEGFSNAISRGVEPGMLRVEHASLAWPNQIDRLASLRVWTVVQPLFRVSDWWLESRVGSDMLQAAYPFASMLRAGVKLALSTDAPVETYDPAETFKAAVGLCSSRLCRESESLTPRETLKLYTLNSALASGGPVAWLGRLRRGAPALFAVANVDVLNSGRKELEKLKFRGLNLAK”, the protein production result was “failed”. On to “MASASFSAVSSLSYQFRSKEAIFSSKASCFSSTALSGRRVFGSIKAAQVTSHENPRRRTQNVEGDIFVDNTCIDCDTCRWMVPDLFTRVDNMSAVTKQPTCKEERLNALQALLSCPTGSIRTQTPPADIGEAQETFPLVVDKDTLPGVFHCGFHSKKSYGATSYLILHREGNILVDSPRYVEKLAGKIEMKGGVRYMFLTHRDDVADHKKWADRFKSTRILHSDDVEPSTSDVELKLEGSGPWSIYEDVELIHTPGHSEGSVCMFHKSLKALFTGDHVIMTESGLSILEQYNHGSVPLQLENVEKLINLDFNWLIPGHGRRVHFKDGDEKAKNLEALVQKHREKQLVSFSKSGKA”, for which the protein production result is on record as “failed”. Next, “MASEMKFAWLLAPDTYWDEKKTFITAALESGIDHIVDTADSGRIKKLGNLTLISPDEDADIVLVGRDGEGDGTLELPETLEYSRDIEMASELSESGRQVAAYVEIRSKAHEELARRLGRVVDYLILVGEDWKIIPLENIIADLQEEDVKLIAAVADVDEARVALETLEHGTDGVLIEPADISQIKDIAALLENIESETYELKPATITRIEPIGSGDRVCVDTCSIMGIGEGMLVGSYSQGLFLVHSESLESEYVASRPFRVNAGPVQAYVMVPGGRTRYLSELETGDEVIIVDRDGRSRSAIVGRVKIEKRPLMLVEAEYEGMKVRTLLQNAETIRLVNDKGEPVSVSELGEGDRVLVYFDESARHFGMAIKETIIEKLEHHHHHH”: “not failed”; “MASFPELPALRRLATLGRSWGLLSDFKYEQTRPDIFYGNLALDTSSLVAALSEDISGAGLNDLKVLDVGGGPGYFAEAFETLGATYFSVEPDVGEMSAAGIDVHGSVRGSGLDLPFLPDSFDVVYSSNVAEHVSAPWELGEEMLRVTRSGGLAILSYTIWLGPFGGHETGLWEHYVGGEFARDRYTKKHGHPPKNVFGESLFNVSCREGLEWGASVGNAELVAAFPRYHPYWVWWMVKVPVLREFAVSNLVLVFKKHLEHHHHHH”: “failed”; “MASFSAETNSTDLLSQPWNEPPVILSMVILSLTFLLGLPGNGLVLWVAGLKMQRTVNTIWFLHLTLADLLCCLSLPFSLAHLALQGQWPYGRFLCKLIPSIIVLNMFASVFLLTAISLDRCLVVFKPIWCQNHRNVGMACSICGCIWVVAFVMCIPVFVYREIFTTDNHNRCGYKFGLSSSLDYPDFYGDPLENRSLENIVQPPGEMNDRLDPSSFQTNDHPWTVPTVFQPQTFQRPSADSLPRGSARLTSQNLYSNVFKPADVVSPKIPSGFPIEDHETSPLDNSDAFLSTHLKLFPSASSNSFYESELPQGFQDYYNLGQFTDDDQVPTPLVAITITRLVVGFLLPSVIMIACYSFIVFRMQRGRFAKSQSKTFRVAVVVVAVFLVCWTPYHIFGVLSLLTDPETPLGKTLMSWDHVCIALASANSCFNPFLYALLGKDFRKKARQSIQGILEAAFSEELTRSTHCPSNNVISERNSTTV”: “failed”. Consider “MASGKQFMKKPIVWTIAGVDSSGLAGVHADMETFSRLNVRACSVITAVTAQNAHSIIAVEEISRDQVAAQCRALELNLKPDAIKIGMLCSTPICEEIAYFLKGYEGFVVLDPIITSSSGTNLFFPDLQQHKNNLIQLFPYITIITPNRIEAEIILNRSIYSYQDIINAASDLLSLGAKQVLLKGGHVKDNSFSQDYWTDGKESFWIANRRFPETNYRGTGCVLSSALTACLALGYSIKDAIVIAKMYVNRGIRQSIEIDKDASQLYHDGWPEDEADLPYLSPTPFIKPVPSFKKYSMGFYPIVDSSHWLEMLLPLGIKCIQLRIKEASQERLEEEIKRSVHLANQYNAALFINDHWELAIHYGAAGVHLGQEDLEKADVDRINRSGLFLGISTHCYYEVARAHALNPSYVACGPIYETTSKIMPFQAQGIARLERWRKTLRYPLVAIGGITLKNLSDVLKTKIDGVSVISAITKASAPLVAAKQFLTQMNESHNE”, for which the protein production entry is on record as “failed”.
